Laboratory results as given in patent US20230242646A1 (JJP BIOLOGICS SP Z O O, published 2023).
Residue numbers refer to the chain shown, from its start.

B1: CD89/IgA blocking mouse anti-human CD89-specific antibody 16D6 (antibody, V domains shown)
VH: QVQLQQSGAELMKPGASVKISCKATGYTFSTYWIEWVKQRPGHGLEWIGEILPGSGSANYNEKFKGKATFTADTSSNTAYMQLSSLTFEDSAVYYCAKGFGSPYYYAMDYWGQGTSVTVSS
VL: EIVLTQSPALMAASPGEKVTITCSVSSSISSSNLHWYQQKSETSPKPWIYGTSKLASGVPVRFSGSGSGTSYSLTISNMEAEDAATYYCQQWSSFPLTFGGGTKLEIK
notes: also called 16D16 [sic]
B2: CD89/IgA blocking mouse anti-human CD89-specific antibody 8F3 (antibody, V domains shown)
VH: EVQLVESGGGLVKPGGSLKLSCAASGFTFSNYGMSWVRQTPDKRLEWVATMHSGGTYTYYPDNVKGRFTISRDNAKNNLYLQMSSLRSEDTAMYYCARETGLYDGLFDFWGQGTTLTVSS
VL: DVQITQSPSYLAASPGETITINCRASKTISKYLAWYQEKPGKTNMLLIYSGSTLQSGVPSRFSGSGSGTDFTLTISSLEPEDLAMYYCQQHDEYPWTFGGGTKLEIK
notes: also called mouse 8F3
B3: CD89/IgA blocking mouse anti-human CD89-specific antibody 9H7 (antibody, V domains shown)
VH: QIQLVQSGPELKKPGETVKISCKASGYTFKNYGMNWVKQAPGKGLKWMAWINTYTGEPTHTDDFKGRFVFSLETSASTAYLQINNLKNEDTATYFCARWGLGTTEEAARDYWGQGTTLTVSS
VL: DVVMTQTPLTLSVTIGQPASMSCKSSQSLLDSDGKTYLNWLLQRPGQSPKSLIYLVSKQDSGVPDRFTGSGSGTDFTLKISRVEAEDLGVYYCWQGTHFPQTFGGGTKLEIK

Tests used:
[1] = target: T1, chimeric bovine EC1-Fcgamma2R/human EC2-CD89 on HEK293F cells (bovine/human chimera); test: FACS, transiently transfected HEK293F
T1 chain: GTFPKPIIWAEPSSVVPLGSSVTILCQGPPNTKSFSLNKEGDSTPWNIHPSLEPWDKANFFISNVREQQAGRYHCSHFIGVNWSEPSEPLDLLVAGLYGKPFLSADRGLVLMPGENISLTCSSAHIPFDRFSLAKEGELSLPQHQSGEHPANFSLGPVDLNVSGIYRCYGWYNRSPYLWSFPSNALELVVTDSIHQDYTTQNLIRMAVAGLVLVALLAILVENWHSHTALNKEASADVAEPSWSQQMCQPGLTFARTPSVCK
Description: To this end, transient transfected HEK293F cells were put at 10 × 10⁶ cells/mL in ice-chilled phosphate-buffered saline containing 0.1% BSA (Sigma)/0.05% NaN₃ (PBS/BSA/NaN₃) supplemented with 50 µg/mL human IgGs (blocking Fcy receptors; Sigma) for 10 minutes at 4° C. Then, 10 µL/tube (i.e., 0.1 × 10⁶ cells) of these cells were incubated with or without 100 µL purified mouse anti-human CD89 antibody at 10 µg/mL (in PBS/BSA/NaN₃) for 30 minutes at 4° C. […] After extensive washing in PBS/BSA/NaN₃, cells were subsequently incubated with 1:200 diluted PE-conjugated goat anti-mouse IgG Fcy-specific antibodies (Jackson ImmunoResearch) for 30 minutes at 4° C. After extensive washing in PBS/BSA/NaN₃, cells were fixed in 2% formaldehyde in PBS/BSA/NaN₃ for 30 minutes at 4° C.

[2] = target: T2, membrane-bound full-length human CD89 on HEK293F cells (human, UniProt P24071 22-287); test: FACS HEK293F-huCD89
T2 construct: 2 or transient transfectants; also called membrane human CD89; human FcaRI
Description: After extensive washing in PBS/BSA/NaN₃, cells were subsequently incubated with 1:200 diluted PE-conjugated goat anti-human IgG Fcy-specific antibodies (Jackson ImmunoResearch) for 30 minutes at 4° C. After extensive washing in PBS/BSA/NaN₃, cells were fixed in 2% formaldehyde in PBS/BSA/NaN₃ for 30 minutes at 4° C.

[3] = target: T3, chimeric human/cynomolgus monkey CD89-hotspots on HEK293F cells (human/cynomolgus chimera, UniProt P24071 22-287); test: FACS, transiently transfected HEK293F
T3 construct: also called dThr58, Gln59; dArg73, Arg74, Lys76
T3 chain: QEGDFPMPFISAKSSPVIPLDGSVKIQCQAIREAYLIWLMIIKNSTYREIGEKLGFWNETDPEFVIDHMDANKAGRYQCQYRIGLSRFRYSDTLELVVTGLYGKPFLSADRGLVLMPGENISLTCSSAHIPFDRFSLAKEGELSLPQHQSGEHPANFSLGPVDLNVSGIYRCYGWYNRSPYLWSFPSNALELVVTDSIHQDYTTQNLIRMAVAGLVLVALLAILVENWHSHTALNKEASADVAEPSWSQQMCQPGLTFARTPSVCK
Description: (§1) To this end, transient transfected HEK293F cells were put at 10 × 10⁶ cells/mL in ice-chilled phosphate-buffered saline containing 0.1% BSA (Sigma)/0.05% NaN₃ (PBS/BSA/NaN₃) supplemented with 50 µg/mL human IgGs (blocking FcY receptors; Sigma) for 10 minutes at 4° C. Then, 10 µL/tube (i.e., 0.1 × 10⁶ cells) of these cells were incubated with or without 100 µL purified mouse anti-human CD89 antibody at 10 µg/mL (in PBS/BSA/NaN₃) for 30 minutes at 4° C. […] After extensive washing in PBS/BSA/NaN₃, cells were subsequently incubated with 1:200 diluted PE-conjugated goat anti-mouse IgG Fcy-specific antibodies (Jackson ImmunoResearch) for 30 minutes at 4° C. After extensive washing in PBS/BSA/NaN₃, cells were fixed in 2% formaldehyde in PBS/BSA/NaN₃ for 30 minutes at 4° C.

[4] = target: T4, membrane full-length cynomolgus monkey CD89 on HEK293F cells (cynomolgus monkey); test: FACS, 10 µg/mL, transiently transfected HEK293F
T4 construct: also called cynoCD89; cynomolgus EC1-CD89
T4 chain: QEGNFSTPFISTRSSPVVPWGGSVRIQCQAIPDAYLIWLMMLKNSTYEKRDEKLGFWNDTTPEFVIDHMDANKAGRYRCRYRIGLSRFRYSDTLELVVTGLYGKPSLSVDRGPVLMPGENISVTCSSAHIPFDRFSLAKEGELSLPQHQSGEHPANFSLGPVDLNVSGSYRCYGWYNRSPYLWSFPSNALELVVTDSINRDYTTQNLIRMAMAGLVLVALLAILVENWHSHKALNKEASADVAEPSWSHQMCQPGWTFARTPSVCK
Description: (§2) To this end, transient transfected HEK293F cells were put at 10 x 10⁶ cells/mL in ice-chilled phosphate-buffered saline containing 0.1% BSA (Sigma)/0.05% NaN₃ (PBS/BSA/NaN₃) supplemented with 50 µg/mL human IgGs (blocking FcY receptors; Sigma) for 10 minutes at 4° C. Then, 10 µL/tube (i.e., 0.1 × 10⁶ cells) of these cells were incubated with or without 100 µL purified mouse anti-human CD89 antibody at 10 µg/mL (in PBS/BSA/NaN₃) for 30 minutes at 4° C. […] After extensive washing in PBS/BSA/NaN₃, cells were subsequently incubated with 1:200 diluted PE-conjugated goat anti-mouse IgG Fcy-specific antibodies (Jackson ImmunoResearch) for 30 minutes at 4° C. After extensive washing in PBS/BSA/NaN₃, cells were fixed in 2% formaldehyde in PBS/BSA/NaN₃ for 30 minutes at 4° C.

[5] = target: T5, recombinant C-terminal polyhistidine-tagged human (extracellular) CD89 (Sino Biological) (human, UniProt P24071 22-227); test: ELISA, coated rhuCD89
T5 construct: extracellular domain; bought protein; also called rhuCD89; soluble monomeric rhuCD89
Description: (§3) After extensive washing with PBS/0.05% Tween 20, plates were blocked with PBS/0.05% Tween 20/1% BSA (Roche) for 1 hour at RT. Subsequently, plates were incubated with 50 µL titrated (in block buffer) purified mouse anti-human CD89 antibody/well for 1 hour at RT. […] After extensive washing in PBS/0.05% Tween 20, binding of antibodies on rhuCD89 was determined with 1:5,000 diluted horseradish peroxidase (HRP)-conjugated goat anti-mouse IgG Fcy-specific antibodies (Jackson ImmunoResearch) for 1 hour at RT, followed by a ready-to-use solution of TMB substrate (Invitrogen) for colorimetric detection.
After extensive washing with PBS/0.05% Tween 20, plates were blocked with PBS/0.05% Tween 20/1% BSA (Roche) for 1 hour at RT. […] After extensive washing in PBS/0.05% Tween 20, binding of antibodies on rhuCD89 was determined with 1:5,000 diluted horseradish peroxidase (HRP)-conjugated goat anti-human IgG Fcy-specific antibodies (Jackson ImmunoResearch) for 1 hour at RT, followed by a ready-to-use solution of TMB substrate (Invitrogen) for colorimetric detection.

[6] = target: T2, membrane-bound full-length human CD89 …; test: FACS HEK293F-huCD89, 10 ug/mL; competitor PE-A59
Description: (§4) Then, 10 µL/tube (i.e., 0.1 × 10⁶ cells) of these cells were incubated with or without 100 µL purified mouse anti-human CD89 antibody at 10 µg/mL (in PBS/BSA/NaN₃) for 30 minutes at 4° C. […] After extensive washing in PBS/BSA/NaN₃, cells were fixed in 2% formaldehyde in PBS/BSA/NaN₃ for 30 minutes at 4° C.

[7] = target: T2, membrane-bound full-length human CD89 …; test: FACS HEK293F-huCD89, 10 ug/mL; competitor PE-A3
Description: as §4

[8] = target: T2, membrane-bound full-length human CD89 …; test: FACS HEK293F-huCD89, 10 ug/mL; competitor PE-MIP8a
Description: as §4

[9] = target: T6, chimeric human/cynomolgus monkey CD89-IV on HEK293F cells (human/cynomolgus chimera, UniProt P24071 22-287); test: FACS, 10 µg/mL, transiently transfected HEK293F
T6 construct: also called dArg97 - Gly121 human EC1-CD89
T6 chain: T3 chain with I37T, W38Q, E52R, K53R, G55K, Q78R, Q80R
Description: as §1

[10] = target: T7, chimeric human/cynomolgus monkey CD89-III on HEK293F cells (human/cynomolgus chimera, UniProt P24071 22-287); test: FACS, 10 µg/mL, transiently transfected HEK293F
T7 construct: also called dGly72 - Gly96 human EC1-CD89; III (72-96)
T7 chain: T3 chain with I37T, W38Q, G51D, E59D, D61T, L85H, S86Y
Description: as §1

[11] = target: T8, chimeric human/cynomolgus monkey CD89-I on HEK293F cells (human/cynomolgus chimera, UniProt P24071 22-287); test: FACS, 10 µg/mL, transiently transfected HEK293F
T8 construct: also called dGln22 - Lys46 human EC1-CD89; I (22-46)
T8 chain: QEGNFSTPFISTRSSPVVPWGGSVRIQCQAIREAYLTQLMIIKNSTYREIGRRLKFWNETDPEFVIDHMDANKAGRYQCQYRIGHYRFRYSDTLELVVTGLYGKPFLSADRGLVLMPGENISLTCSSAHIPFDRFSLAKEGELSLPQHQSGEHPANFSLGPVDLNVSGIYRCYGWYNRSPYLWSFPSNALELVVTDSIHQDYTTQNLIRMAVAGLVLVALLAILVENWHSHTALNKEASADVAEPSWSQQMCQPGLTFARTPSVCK
Description: as §1

[12] = target: T9, chimeric human/cynomolgus monkey CD89-II on HEK293F cells (human/cynomolgus chimera, UniProt P24071 22-287); test: FACS, 10 µg/mL, transiently transfected HEK293F
T9 construct: also called dIle47 - Ile71 human EC1-CD89; II (47-71)
T9 chain: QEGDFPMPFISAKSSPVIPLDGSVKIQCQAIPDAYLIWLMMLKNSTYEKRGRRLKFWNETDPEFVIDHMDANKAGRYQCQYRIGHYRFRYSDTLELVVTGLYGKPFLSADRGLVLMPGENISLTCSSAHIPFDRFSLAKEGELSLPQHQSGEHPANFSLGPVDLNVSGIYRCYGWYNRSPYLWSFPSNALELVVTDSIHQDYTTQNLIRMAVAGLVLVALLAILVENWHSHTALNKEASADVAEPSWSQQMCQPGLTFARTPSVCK
Description: as §1

[13] = target: T5, recombinant C-terminal …; test: ELISA on coated rhuCD89
Description: as §3

[14] = target: T5, recombinant C-terminal …; test: ELISA, antibody before serum IgA on coated rhuCD89; IgA detected
Description: After extensive washing with PBS/0.05% Tween 20, plates were blocked with PBS/0.05% Tween 20/1% BSA (Roche) for 1 hour at RT. Subsequently, plates were incubated with 25 µL titrated (in block buffer) purified mouse anti-human CD89 antibody/well for 30 minutes at RT. […] After extensive washing in PBS/0.05% Tween 20, 1:10,000 diluted HRP-conjugated streptavidin (Jackson ImmunoResearch) was added, and incubated for 1 hour at RT, followed by a ready-to-use solution of TMB substrate (Invitrogen) for colorimetric detection.

[15] = target: T2, membrane-bound full-length human CD89 …; test: FACS, antibody before serum IgA on HEK293F-huCD89; IgA detected
Description: Then, 10 µL/tube (i.e., 0.1 x 10⁶ cells) of these cells were incubated with 50 µL titrated (in PBS/BSA/NaN₃) purified mouse anti-human CD89 antibody/tube for 30 minutes at 4° C. […] After extensive washing in PBS/BSA/NaN₃, 1:200 diluted PE-conjugated streptavidin (Jackson ImmunoResearch) was added, and incubated for 30 minutes at 4° C. After extensive washing in PBS/BSA/NaN₃, cells were fixed in 2% formaldehyde in PBS/BSA/NaN₃ for 30 minutes at 4° C.

[16] = target: T2, membrane-bound full-length human CD89 …; test: FACS on HEK293F-huCD89
Description: Then, 10 µL/tube (i.e., 0.1 x 10⁶ cells) of these cells were incubated with 100 µL titrated (in PBS/BSA/NaN₃) purified mouse anti-human CD89 antibody/tube for 30 minutes at 4° C. […] After extensive washing in PBS/BSA/NaN₃, cells were subsequently incubated with 1:200 diluted PE-conjugated goat anti-mouse IgG Fcy-specific antibodies (Jackson ImmunoResearch) for 30 minutes at 4° C. After extensive washing in PBS/BSA/NaN₃, cells were fixed in 2% formaldehyde in PBS/BSA/NaN₃ for 30 minutes at 4° C.

[17] = target: T7, chimeric human/cynomolgus monkey …; test: FACS, transiently transfected HEK293F
Description: as §1

[18] = target: T4, membrane full-length cynomolgus monkey …; test: FACS, transiently transfected HEK293F
Description: as §2

[19] = target: T2, membrane-bound full-length human CD89 …; test: FACS, antibody before secretory IgA on HEK293F-huCD89; IgA detected
Description: Then, 10 µL/tube (i.e., 0.1 x 10⁶ cells) of these cells were incubated with or without 50 µL titrated (in PBS/BSA/NaN₃) purified mouse anti-human CD89 antibody/tube for 30 minutes at 4° C. […] After extensive washing in PBS/BSA/NaN₃, 1:200 diluted PE-conjugated streptavidin (Jackson ImmunoResearch) was added, and incubated for 30 minutes at 4° C. After extensive washing in PBS/BSA/NaN₃, cells were fixed in 4% formaldehyde in PBS/BSA/NaN₃ for 30 minutes at 4° C.

[20] = target: T2, membrane-bound full-length human CD89 …; test: FACS, unlabelled antibody before MIP8a-PE on HEK293F-huCD89
[21] = target: T10, membrane human CD89 on ex vivo primary human neutrophilic granulocytes or monocytic U937 cells (human, UniProt P24071 22-287); test: cell-based or functional assay
[22] = target: T2, membrane-bound full-length human CD89 …; test: FACS, unlabelled antibody before A3-PE on HEK293F-huCD89
[23] = target: T10, membrane human CD89 on ex vivo primary …; test: cell-based or functional assay; remark: listed apart in the source

Row | Binder | binding result [1] | EC50 [2] [µg/mL] | binding result [3] | EC50 [5] [µg/mL] | % blocking of PE-A59 binding [6] [%] | % blocking of PE-A3 binding [7] [%] | % blocking of PE-MIP8a binding [8] [%] | binding result [9] | binding result [11] | binding result [12] | EC50 (read off the curve) [13] [µg/mL] | IC50 (read off the curve) [14] [µg/mL] | IC50 (read off the curve) [15] [µg/mL] | EC50 (read off the curve) [16] [µg/mL] | IC50 (read off the curve) [19] [µg/mL] | also measured
1 | B1 | no binding (tested: 10 µg/mL) | 1.62 | no binding (tested: 10 µg/mL) | 0.119 | < 25 | < 25 | < 25 | binds | binds | binds |  |  |  |  |  | binding result [4]: binds; binding result [10]: binds
2 | B2 | no binding (tested: 10 µg/mL) | 0.714 | no binding (tested: 10 µg/mL) | 0.052 | < 25 | < 25 | < 25 | binds | binds | binds | ~0.03 | ~0.09 | ~0.8 | ~0.4 | ~0.8 | binding result [17]: no binding (tested: 10 µg/mL); binding result [18]: no binding (tested: 10 µg/mL)
3 | B3 |  |  |  |  |  |  | > 90 |  |  |  | ~0.01 | ~0.03 | ~0.2 | ~0.2 | ~0.4 | IC50 (read off the curve) [20]: ~0.4 µg/mL; IC50 (read off the bars), binding of granulocytes to plate-bound serum IgA [Donor 2] [21]: ~0.2 µg/mL; IC50 (read off the curve) [22]: ~0.4 µg/mL; IC50 (read off the bars), binding of granulocytes to plate-bound serum IgA [Donor 1] [23]: ~0.9 µg/mL
